The values that follow come from patent US20130081152.

The test system of the series is T1, His-tagged recombinant PbGDPS_SSU (expressed in E. coli from pET15b).
T1 sequence: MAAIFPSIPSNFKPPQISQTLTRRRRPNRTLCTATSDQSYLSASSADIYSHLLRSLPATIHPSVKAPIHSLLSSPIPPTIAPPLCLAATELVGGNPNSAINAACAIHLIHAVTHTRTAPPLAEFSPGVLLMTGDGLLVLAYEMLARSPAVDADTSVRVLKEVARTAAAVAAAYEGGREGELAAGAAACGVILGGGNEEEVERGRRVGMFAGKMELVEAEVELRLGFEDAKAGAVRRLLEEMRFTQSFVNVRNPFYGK

Take “His-tagged recombinant PbGDPS_LSU (truncated, expressed in E. coli from pBAD202/D-TOPO)”: the prenyltransferase activity entry was “higher prenyltransferase activity than either PbGDPS_LSU or PbGDPS_SSU alone”.
